Numbering of substitutions follows the chain as printed.
T1: EphA3 (wild type, expressed in cells) (UniProt P29320 21-983, limits assumed)
T1 construct: whole, on cells; also called wt EphA3; w/t EphA3
T1 sequence (looked up): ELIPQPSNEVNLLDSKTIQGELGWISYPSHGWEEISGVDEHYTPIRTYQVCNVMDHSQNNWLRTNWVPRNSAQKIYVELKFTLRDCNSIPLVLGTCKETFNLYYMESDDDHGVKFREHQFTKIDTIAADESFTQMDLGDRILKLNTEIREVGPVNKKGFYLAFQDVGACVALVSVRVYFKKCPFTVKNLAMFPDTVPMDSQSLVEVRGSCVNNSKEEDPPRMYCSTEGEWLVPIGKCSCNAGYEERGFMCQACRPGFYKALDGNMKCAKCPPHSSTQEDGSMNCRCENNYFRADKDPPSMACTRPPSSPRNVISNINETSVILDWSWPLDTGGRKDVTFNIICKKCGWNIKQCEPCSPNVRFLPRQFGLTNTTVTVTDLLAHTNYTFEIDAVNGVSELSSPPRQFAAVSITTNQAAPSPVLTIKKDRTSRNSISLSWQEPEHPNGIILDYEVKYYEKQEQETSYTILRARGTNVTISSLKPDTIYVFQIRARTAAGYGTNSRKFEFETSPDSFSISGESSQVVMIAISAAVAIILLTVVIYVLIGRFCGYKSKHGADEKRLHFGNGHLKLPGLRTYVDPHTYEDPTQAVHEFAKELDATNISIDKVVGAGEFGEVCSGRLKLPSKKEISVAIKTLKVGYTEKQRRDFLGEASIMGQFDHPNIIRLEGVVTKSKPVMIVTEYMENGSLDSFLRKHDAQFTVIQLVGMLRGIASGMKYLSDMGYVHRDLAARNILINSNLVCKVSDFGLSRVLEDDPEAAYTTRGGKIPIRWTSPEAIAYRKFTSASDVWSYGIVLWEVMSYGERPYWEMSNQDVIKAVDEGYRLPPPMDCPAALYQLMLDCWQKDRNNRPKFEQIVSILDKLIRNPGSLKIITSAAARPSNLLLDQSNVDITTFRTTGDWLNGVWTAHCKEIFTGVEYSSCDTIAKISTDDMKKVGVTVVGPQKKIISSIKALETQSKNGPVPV

B1: wt-ADAM10: full length, wild-type ADAM10 overexpressed in cells (protein)
chain: TTVAEKNTCQLYIQTDHLFFKYYGTREAVIAQISSHVKAIDTIYQTTDFSGIRNISFMVKRIRINTTADEKDPTNPFRFPNIGVEKFLELNSEQNHDDYCLAYVFTDRDFDDGVLGLAWVGAPSGSSGGICEKSKLYSDGKKKSLNTGIITVQNYGSHVPPKVSHITFAHEVGHNFGSPHDSGTECTPGESKNLGQKENGNYIMYARATSGDKLNNNKFSLCSIRNISQVLEKKRNNCFVESGQPICGNGMVEQGEECDCGYSDQCKDECCYDANQPEGKKCKLKPGKQCSPSQGPCCTAHCAFKSKTEKCRDDSDCAKEGICNGITALCPASDPKPNFTDCNRHTQVCINGQCAGSICEKHGLEECTCASSDGKDDKELCHVCCMKKMEPSTCASTGSVQWNKYFLGRTITLQPGSPCNDFRGYCDVFMRCRLVDADGPLARLKKAIFSPELYENIAEWIVAYWWAVLLMGIALIMLMAGFIKICSVHTPSSNPKLPPPKPLPGTLKRRRPPQPIQQPQRQRPRESYQMGHMRR
modifications: left off: small tags and cut ends
notes: full length, wild-type ADAM10 overexpressed in cells
B2: ADAM10 [EEE-A] mutant: full-length ADAM10 with alanine substitutions of Glu573, Glu578 and Glu579 (protein)
chain: B1 chain with E360A, E365A, E366A
modifications: left off: small tags and cut ends
notes: full-length ADAM10 with alanine substitutions of Glu573, Glu578 and Glu579
B3: endogenous ADAM10 (HEK293 and LiBr melanoma cells) (enzyme, human, UniProt O14672 214-748, looked up)
chain: TTSAEKNTCQLYIQTDHLFFKYYGTREAVIAQISSHVKAIDTIYQTTDFSGIRNISFMVKRIRINTTADEKDPTNPFRFPNIGVEKFLELNSEQNHDDYCLAYVFTDRDFDDGVLGLAWVGAPSGSSGGICEKSKLYSDGKKKSLNTGIITVQNYGSHVPPKVSHITFAHEVGHNFGSPHDSGTECTPGESKNLGQKENGNYIMYARATSGDKLNNNKFSLCSIRNISQVLEKKRNNCFVESGQPICGNGMVEQGEECDCGYSDQCKDECCFDANQPEGRKCKLKPGKQCSPSQGPCCTAQCAFKSKSEKCRDDSDCAREGICNGFTALCPASDPKPNFTDCNRHTQVCINGQCAGSICEKYGLEECTCASSDGKDDKELCHVCCMKKMDPSTCASTGSVQWSRHFSGRTITLQPGSPCNDFRGYCDVFMRCRLVDADGPLARLKKAIFSPELYENIAEWIVAHWWAVLLMGIALIMLMAGFIKICSVHTPSSNPKLPPPKPLPGTLKRRRPPQPIQQPQRQRPRESYQMGHMRR
notes: whole, on cells; Both pro and mature forms are marked on the blot; also called pro (unprocessed) and mature (processed) forms

Assays:
[1] = test system: EphA3-expressing 293 cells; assay: Ephrin-A5-Fc cleavage in EphA3/293 cells overexpressing ADAM10 constructs (Western blot of recovered ephrin); assay type: cell-based, human; details: overexpression of ADAM10 construct; clustered ephrin-A5-Fc
Procedure: (§1) FIG. 4. Mutation of acidic residues in the ADAM10 Cys-rich domain affects binding to EphA3/ephrin-A5 and cleavage of ephrin-A5. • A. In vitro binding of mutant ADAM10D+C to EphA3/ephrin-A5. ADAM10D+C[EEE-A] containing Alanine substitutions of Glu573, Glu578, Glu579 (lanes 1-4) or ADAM10D+C[RDD-A] (Ala substitutions of Arg525, Asp526, Asp527, lanes 5-8) were incubated alone (lanes 1, 5), or together with EphA3-Fc (lanes 2, 6), ephrin-A5-Fc (lanes 3, 7), or EphA3-Fc and ephrin-A5 (lanes 4, 8). Complexed proteins were extracted with Protein-A-Sepharose beads and analysed as in FIG. 2. • B. Binding of wild-type and mutant ADAM10ΔMP to EphA3 in cells. EphA3/293 cells were transfected with HA-ADAM10ΔMP or HA-ADAM10ΔMP [EEE-A]. Parental and transfected cells were treated for 10 min with or without pre-clustered ephrin-A5-Fc and lysed. Anti-HA and anti-EphA3 immunoprecipitates, and total cell lysates were analysed by Western blotting with indicated antibodies. • C. Ephrin-A5-Fc cleavage in cells expressing wt and 3A mutant ADAM10. EphA3/293 cells were transfected with full length, wild-type (wt) ADAM10, dominant-negative ADAM10ΔMP, or ADAM10 bearing alanine (3A) or 3 lysine (3K) substitutions of Glu573, 578, 579. Following exposure to clustered (+) or non-clustered ? ephrin-A5 Fc, cleaved ephrin was recovered and analysed by Western Blot as described in FIG. 1c. […]

HEK293 cells [2] = assay: Confocal imaging of co-cultured EphA3-diHcRed/ADAM10 and GFP-ephrin expressing cells; assay type: cell-based, human; details: co-incubation with GFP-ephrin-A5 or GFP-ephrin-A2 cells for 40 min
Procedure: as §1, with “1c. Parallel anti-HA blots of whole-cell lysates reveal the expression levels of ADAM10 constructs. • D. Model of ADAM protein modules and cleavage mechanism. Left, schematic representation of ADAM proteinases protein domain organization; right, schematic representation of the proposed interactions and positioning of ADAM10, EphA3, and Ephrin-A5 between interacting cells, leading to controlled ephrin-cleavage. • E. Ephrin cleavage from the cell surface is blocked by overexpression of 3A-mutant ADAM10. HEK293 cells were co-transfected with (red-fluorescent) EphA3-diHcRed and either wt ADAM10, ADAM10 bearing alanine (3A) substitutions at Glu573, Glu578, and Glu579, or dominant-negative ADAM10ΔMP.” for “1c.”

HEK293 cells [3] = assay: Confocal imaging of pro-EGF shedding in co-cultured EGFR-GFP/ADAM10 and HA-pro-EGF expressing cells; assay type: cell-based, human; details: co-incubation with HA-pro-EGF cells for 15 min
Procedure: FIG. 5. Cleavage of cell surface pro-EGF by ADAM10 co-expressed with the EGF receptor requires the intact substrate recognition pocket of ADAM10. HEK293 cells transiently expressing EGFR-GFP and either wild type or 3A mutant ADAM10 (as indicated) were co-incubated with HEK293 cells expressing HA-tagged pro-EGF for 15 min. The cells were then washed, fixed and stained with antibodies against ADAM10 (Alexa^546, red) and HA (Alexa^647, cyan). Arrows indicate EGFR/3A Adam10-expressing cells unable to take up EGF from associated HA-pro-EGF expressing cells (stars); arrowheads indicate cells that have taken up EGF that over-express EGFR and wtAdam10 (bottom panels), or just EGFR (with endogenous Adam10), top panels.
ADAM-mediated ligand cleavage from the cell surface, also referred to as ‘shedding’ has been extensively described as mechanism that facilitates the release of the pro-forms of the EGF-receptor ligands (Blobel, 2005, supra). We were interested to see, if the here described substrate recognition site of ADAM10 would function also to recognise pro-EGF and regulate its shedding from the cell surface. We performed the same confocal imaging approach, using HEK293 cells transfected to express GFP-tagged EGF-receptor, which were co-cultured with cells expressing HA-tagged pro-EGF. […]

[4] = molecular target: T1, EphA3 (wild type, expressed in cells); assay: anti-EphA3 immunoprecipitation, anti-ADAM10 Western blot
Procedure: Cells were cultured in DME/10% FCS and transfected with Lipofectamine 2000 (Invitrogen), and in some experiments treated with the metalloprotease inhibitors 1,10-O-Phenanthroline (OPN, 4h, 1 mM; Mumm et al., 2000, Mol. Cell. 5 197-206) and TAPI1 (1h, 50 µM; Yan et al., 2002, J Cell Biol. 158 221-6). HEK293 cells were transfected with EphA3 (Wicks et al., 1992, Proc. Natl. Acad. Sci. USA 89 1611-1615) or ephrin-A5 (Winslow et al., 1995, Neuron 14 973-81; Lackmann et al., 1996, Proc. Natl. Acad. Sci. USA 93 2523-2527) in pEfBos vectors containing puromycin or gentamycin resistance genes, respectively and stable EphA3/HEK293 or ephrin-A5/HEK293 clones derived accordingly. Serum-starved cells were stimulated (10 min) with 1.5 ug/ml pre-clustered ephrinA5-Fc and harvested, as described previously. Immunoprecipitation was with anti-EphA3 mAb IIIA4 (Boyd et al., 1992, J Biol. Chem. 267 3262-3267. or anti-HA mAb 3F10 (Roche) conjugated to beads, and Western blotting was performed using anti-ADAM10 (Biogenesis, UK), anti-ephrinA5 (R&D Systems) and anti-ephA3 (Lackmann et al., 1997, supra) antibodies.
Initially, we investigated whether ADAM10 interacts with either EphA3 or ephrin-A5 on the cell surface and how these interactions are affected upon Eph/ephrin complex formation. […]

binding result [4] | Molecule | ephrin-A5 cleavage [1] | ephrin cleavage from the cell surface and internalisation (HEK293 cells [2]) | EGF shedding and uptake into EGF-receptor expressing cells (HEK293 cells [3]) | ephrin cleavage from the cell surface and internalisation (HEK293 cells [2]; listed as 3A-mutant ADAM10)
– | B1 | did not increase ephrin cleavage above control levels | readily noticeable | – | –
– | B2 | – | absent | dramatically reduced | blocked
binds | B3 | – | – | – | –

Reference: patent US7960513B2, “Antibody against a human ADAM protease” (Monash University, priority 2004, dated 2011)
